From patent US20230250167A1 (published 2023)
Values belong to the binder of their own block, whether it stands above or below them.

Target: T1, human ILT7 expressed on transfected cells (human, UniProt P59901 24-499)
T1 construct: whole, on cells; also called LILRA4; LIRA4
Assay: FMAT cell binding, CHO cells expressing human ILT7
Description: This homogeneous assay assessed the binding of crude scFv supernatant samples or purified IgG to Chinese Hamster Ovary (CHO) cells expressing either human or cynomolgus ILT7 in a 384-well (Costar 3655) format. ScFv or Ab binding to cells was detected using a mouse anti-His/goat anti-mouse Alexafluor®-647 labelled antibody (Molecular Probes A21236) mix, or goat anti-human Alexafluor®-647 labelled antibody (Molecular Probes A21445) respectively. Plates were read on the Applied Biosystems Cellular Detection system 8200 reader. The Helium neon excitation laser was focused within 100 μm depth of the bottom of the well, scanning an area 1 mm². The cells settled at the bottom of the well, and upon laser excitation at 633 nm, those beads with fluorophore bound (where the local concentration of fluorophore is relatively high compared to unbound fluorophore) emitted a signal at 650-685 nm that was measured using photomultiplier tube-1 (PMT1). […] The presence of scFv or IgG samples binding to the cells at the bottom of the well caused an increase in Alexafluor-labeled detection antibody within the excitation depth. This was measured as an increase in fluorescence.
Species cross-reactivity of anti-ILT7 antibodies was determined using FMAT binding assay. The detailed assay method is provided in the Materials and Methods section. […]

T1 sequence (P59901 24-499): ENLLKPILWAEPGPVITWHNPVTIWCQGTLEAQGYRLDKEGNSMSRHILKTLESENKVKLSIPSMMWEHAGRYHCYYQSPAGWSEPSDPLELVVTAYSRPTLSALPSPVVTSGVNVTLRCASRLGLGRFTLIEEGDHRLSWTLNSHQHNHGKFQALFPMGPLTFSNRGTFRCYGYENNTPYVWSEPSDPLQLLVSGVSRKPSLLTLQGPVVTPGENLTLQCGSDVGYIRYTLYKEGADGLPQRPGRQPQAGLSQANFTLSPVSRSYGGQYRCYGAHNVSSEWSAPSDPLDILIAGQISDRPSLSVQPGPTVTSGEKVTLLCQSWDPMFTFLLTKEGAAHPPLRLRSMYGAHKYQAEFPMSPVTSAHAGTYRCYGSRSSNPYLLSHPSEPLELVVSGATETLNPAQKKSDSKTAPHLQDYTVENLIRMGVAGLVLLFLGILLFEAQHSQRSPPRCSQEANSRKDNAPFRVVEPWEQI

- binding result: binds
B1: ILT70052 (antibody, V domains shown)
VH: EVQLVESGGGLVKPGGSLRLSCEASGFTFTDYYMNWIRQAPGKGLEWISYISPGGTTVYYADSVKGRFTISRDNAKNSLYLQMNSLRVEDTAVYYCARDISGYGDWFDPWGKGTLVTVSS
VL: QSVVTQPPSASGTPGQRVTISCSGSSSNIGSNTVNWYQLLPATAPRILIYNNNQRPSGVPDRFAGSKSGTSASLAISGLQSEDEADYYCGAWDDSLNSPVFGGGTKLTVL

- binding result: binds
B2: ILT70100 (antibody, V domains shown)
VH: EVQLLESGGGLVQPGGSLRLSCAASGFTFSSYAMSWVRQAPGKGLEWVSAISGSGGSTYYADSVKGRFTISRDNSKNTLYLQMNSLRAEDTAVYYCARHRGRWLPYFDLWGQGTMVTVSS
VL: DIQLTQSPSSLSASVGERVTITCQASQDIRSYLNWYQQKPGKAPKLLIYDVSNLETGVPSRFSGSGSGTEYTFSISSLQPEDFATYYCQQYDKAPLTFGGGTKVEIK
